Reference: publication doi:10.1101/2025.11.14.688546, “Nuclear-import receptors remodel the dilute phase to suppress phase transitions of RNA-binding proteins with prion-like domains” (bioRxiv, 2025)
Where two headings read alike, the source gives them in different places.

Columns and labels:
Kapβ2 (Homo sapiens) [1] = target: Kapβ2 (Homo sapiens) (UniProt Q92973); conditions: cited from earlier work
Kapβ2 (Homo sapiens) [2] = target: Kapβ2 (Homo sapiens) (UniProt Q92973); experiment: fluorescence anisotropy; conditions: cited from earlier work
hnRNPA1 = hnRNPA1 (UniProt P09651)
hnRNPA1, sequence (P09651 whole entry): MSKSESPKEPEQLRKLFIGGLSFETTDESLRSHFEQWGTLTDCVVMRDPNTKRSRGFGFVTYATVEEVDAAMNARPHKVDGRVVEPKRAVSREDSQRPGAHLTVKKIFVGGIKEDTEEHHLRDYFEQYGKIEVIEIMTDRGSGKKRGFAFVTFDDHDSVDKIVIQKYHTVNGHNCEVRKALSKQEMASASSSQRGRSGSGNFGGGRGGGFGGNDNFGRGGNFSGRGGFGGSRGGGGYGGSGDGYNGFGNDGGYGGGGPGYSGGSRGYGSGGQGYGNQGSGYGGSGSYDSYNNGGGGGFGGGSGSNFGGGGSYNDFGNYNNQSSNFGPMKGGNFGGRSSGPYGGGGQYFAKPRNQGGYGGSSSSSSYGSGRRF

[3] = target: the molecule itself; experiment: microfluidic resistive pulse sensing (MRPS); increasing concentrations of the RNA-binding protein alone; MBP cleaved in situ by TEV (0.04 mg/ml), 1.5–2 h at room temperature; C-400 and C-2000 cartridges (70–2000 nm); FUS: 20 mM HEPES pH 7.4, 207 mM NaCl, 1.3 mM DTT, 0.7 mM EDTA, 3.3 % glycerol; hnRNPA1 and hnRNPA2: same with 66.7 mM NaCl

Kapβ2 (Homo sapiens), sequence (Q92973 whole entry): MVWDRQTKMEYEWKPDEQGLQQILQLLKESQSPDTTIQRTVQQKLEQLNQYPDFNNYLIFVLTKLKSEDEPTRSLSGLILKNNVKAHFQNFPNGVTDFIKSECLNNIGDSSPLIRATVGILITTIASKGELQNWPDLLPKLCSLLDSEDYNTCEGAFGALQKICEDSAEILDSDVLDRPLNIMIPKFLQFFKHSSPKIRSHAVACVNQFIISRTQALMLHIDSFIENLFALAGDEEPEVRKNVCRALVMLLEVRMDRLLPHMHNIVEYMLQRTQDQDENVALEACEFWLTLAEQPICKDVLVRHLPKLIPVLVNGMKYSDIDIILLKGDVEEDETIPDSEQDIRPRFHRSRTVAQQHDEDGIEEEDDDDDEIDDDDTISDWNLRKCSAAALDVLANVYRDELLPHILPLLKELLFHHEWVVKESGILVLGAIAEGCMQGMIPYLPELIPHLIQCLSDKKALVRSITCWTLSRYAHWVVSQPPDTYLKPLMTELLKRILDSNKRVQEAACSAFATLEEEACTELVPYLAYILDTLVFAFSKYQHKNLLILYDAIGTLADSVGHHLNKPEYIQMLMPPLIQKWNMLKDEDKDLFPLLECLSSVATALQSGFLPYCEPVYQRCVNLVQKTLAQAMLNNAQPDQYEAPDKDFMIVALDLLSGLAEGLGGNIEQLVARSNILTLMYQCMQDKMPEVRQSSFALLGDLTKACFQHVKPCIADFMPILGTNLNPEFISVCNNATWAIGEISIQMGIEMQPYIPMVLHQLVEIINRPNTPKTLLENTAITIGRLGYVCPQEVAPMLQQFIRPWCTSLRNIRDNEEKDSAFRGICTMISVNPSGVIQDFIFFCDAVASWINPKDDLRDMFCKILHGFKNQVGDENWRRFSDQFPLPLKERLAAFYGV

FUS (from UniProt P35637)
Kd (Kapβ2 (Homo sapiens) [1]): 50 nM
Kd (Kapβ2 (Homo sapiens) [2]): 43 nM

Karyopherin-β2 (from UniProt Q92973 1-898) (natural protein)
saturation concentration (csat) of hnRNPA1 for condensate formation, brightfield microscopy; ~4 μM without Kapβ2, measured with 2 μM Kapβ2 (hnRNPA1): 6 µM

B1: FUS^P525L (natural protein, UniProt P35637 1-526, looked up)
chain: MASNDYTQQATQSYGAYPTQPGQGYSQQSSQPYGQQSYSGYSQSTDTSGYGQSSYSSYGQSQNTGYGTQSTPQGYGSTGGYGSSQSSQSSYGQQSSYPGYGQQPAPSSTSGSYGSSSQSSSYGQPQSGSYSQQPSYGGQQQSYGQQQSYNPPQGYGQQNQYNSSSGGGGGGGGGGNYGQDQSSMSSGGGSGGGYGNQDQSGGGGSGGYGQQDRGGRGRGGSGGGGGGGGGGYNRSSGGYEPRGRGGGRGGRGGMGGSDRGGFNKFGGPRDQGSRHDSEQDNSDNNTIFVQGLGENVTIESVADYFKQIGIIKTNKKTGQPMINLYTDRETGKLKGEATVSFDDPPSAKAAIDWFDGKEFSGNPIKVSFATRRADFNRGGGNGRGGRGRGGPMGRGGYGGGGSGGGGRGGFPSGGGGGGGQQRAGDWKCPNPTCENMNFSWRNECNQCKAPKPDGPGGGPGGSHMGGNYGDDRRGGRGGYDRGGYRGRGGDRGGFRGGRGGGDRGGFGPGKMDSRGEHRQDRRERLY
notes: Production of the variant is not described on its own; also called ALS-linked FUS variant P525L; not shown: MBP, N-terminal, cleaved
binding result [3]: binds
